Test results published in US20180049457A1, “ENZYMATIC SYNTHESIS OF SOLUBLE GLUCAN FIBER” (E I DU PONT DE NEMOURS AND COMPANY, priority 2014, published 2018).

B1: GTF4491NT: N terminal-only truncated GTF4491 from Streptococcus salivarius JIM8777, SEQ ID NO: 106, strain SG1292 (protein)
chain: INGKQYYVNSDGSVRKNFVFEQDGKSYYFDAETGALATKSQDEFSTEPIKATVDFSSGNQLYKNDDKSLDQLDTFITADAWYRPKSILKDGKTWTASTEADKRPLLMVWWPDKSTQVNYLNYMQNQGLGAGSFSTNSSQESLDQAAKAVQTKIEERIAREGNTNWLRTSIDQFIKTQPGWNSSTENSSYDHLQGGQLLFNNSKGDTGNRTSHANSDYRLLNRTPTNQTGTRKYFKDNSIGGLEFLLANDIDNSNPAVQAEQLNWLHFMMNIGSIMANDPTANFDGLRVDALDNVDADLLQIASDYFKAAYGVDKSEANAIKHLSYLEAWSANDPYYNKDTKGAQLPIDNALRNALTNLLMRDKNTRMQLGDMTAFINSSLNPRGANDKNGERMANYIFTRAHDTEAQTIIQRIIRDRINPNLFGYNFTRDEIKKAFEIYNEDIDKAHKTYASYNLPSVYALMLTNKDSVTRVYYGDLYREDGHYMAKKTPYFDAIDTLLRARIKYVAGGQDMEVKKVGNDGLLTSVRYGKGANNRTDLGTSETRTQGMGVIMTNNYDFRLGSNETVTMNMGRAHRNQLYRPLLLTTKDGIATYLNDSDVPKNLLKRTDWNGNLTFNANDVFGVENVQVSGYLGVWVPYGAKANQDARTQPSNRANSDGQVYKSSAALDSQVMYEAFSNFQAFADDQPELYMNRVLAKNTDLLKAWGITSVGLPPQYVSSKDGTFLDSIIDNGYAFDDRYDMALSQNNKYGSLEDLLNVLRALHKDGIQAIADWVPDQIYNLPGKEVVNATRVNGYGYHQQGYQIVDQAYVANTRTDGTDYQGKYGGAFLDELKAKYPSIFNRVQISNGKQLPTNEKITKWSAKYFNGTNILGRGINFVLRDDKTNQYFNTSANSQLLPTPLRDTGAITSTQVFQRRGQDVYFLRDNQTVKNEFVQDGNGNWYYFGGDGKMTKGAQNINSKDYYFFDNGVQLRNALRRASNGYTYYYGLDGAMVKNAFVDFDDKHKQVRAFTTQGTMVVGNLHWSGHHFYFDRETGIQAKDRVVRTDDGKLHYYVAETGDMGRNVFATDSSTGKRYYFDADGNTVTGSRVIDGKTYYFNQDGSVGTAYSNRADSIIFENGKARYITPAGEIGRSIFVYNPATKAWNYFDKEGNRVTGRQYIDGHLYYFKEDGSQAKGEIIEENGIKYYYEPESGILASGRYLQVGDDQWMYFKQDGSLAIGQVRADHGYLKYFDKNGIQVKGKTVVEDGKTYYYDAHSGALVTSSFAEIAPNQWSYFNTDGQALKGKWTINGKEYYFDENGIQYKGKAIKVGSRYKYYDENDGQPVTNRFAQIEPNVWAYFGADCYAVTGEQVINGQHLYFDENGRQVKGAYVTVNGQRRYYDANTGEYVPGR
modifications: Streptococcus salivarius JIM8777
B2: GTF4336NT: N terminal-only truncated GTF4336 from Streptococcus salivarius SK126, SEQ ID NO: 104, strain SG1291 (protein)
chain: INGKQYYVNSDGSVRKNFVFEQDGKSYYFDAETGALATKSQDEFSTEPIKATVDFSSGNQLYKNDDKSLDQLDTFITADAWYRPKSILKDGKTWTASTEADKRPLLMVWWPDKSTQVNYLNYMQNQGLGAGSFSTNSSQESLDQAAKAVQTKIEERIAREGNTNWLRTSIDQFIKTQPGWNSSTENSSYDHLQGGQLLFNNSKGDTGNRTSHANSDYRLLNRTPTNQTGTRKYFKDNSIGGLEFLLANDIDNSNPAVQAEQLNWLHFMMNIGSIMANDPTANFDGLRVDALDNVDADLLQIASDYFKAAYGVDKSEANAIKHLSYLEAWSANDPYYNKDTKGAQLPIDNALRNALTNLLMRDKNTRMQLGDMTAFINSSLNPRGANDKNGERMANYIFTRAHDTEAQTIIQRIIRDRINPNLFGYNFTRDEIKKAFEIYNEDIDKAHKTYASYNLPSVYALMLTNKDSVTRVYYGDLYREDGHYMAKKTPYFDAIDTLLRARIKYVAGGQDMEVKKVGNDGLLTSVRYGKGANNRTDLGTSETRTQGMGVIMTNNYDFRLGSNETVTMNMGRAHRNQLYRPLLLTTKDGIATYFNDSDVPKNLLKRTDWNGNLTFNANDVFGVENVQVSGYLGVWVPVGAKANQDARTQPSNRANSDGQVYKSSAALDSQVMYEAFSNFQAFADDQPELYMNRVLAKNTDLLKAWGVTSVGLPPQYVSSKDGTFLDSTIDNGYAFDDRYDMALSQNNKYGSLEDLLNVLRALHKDGIQAIADWVPDQIYNLPGKEVVNATRVNGYGYHQQGYQIVDQAYVANTRTDGTDYQGKYGGAFLDELKAKYPSIFNRVQISNGKQLPTNEKITKWSAKYFNGTNILGRGINYVLRDDKTNQYFNTSANSQLLPTPLRDTGAITSTQVFQRRGQDVYFLRDNQAVKNEFVQDGNGNWYYFGADGKMTKGAQTINKKDYYFFDNGIQLRNALRRANNGYTYYYGLDGAMVKNAFVDFDDKRKQVRAFTTQGTMVVGNLHWSGHHFYFDRETGIQAKDRIVRTDDGKLHYYVAGTGDMGRNVFATDSSTGKRYYFDADGNTVTGSRVIDGKTYYFNQDGSVGTAYSNRADSIIFENGKARYITPAGEIGRSIFVYNPATKAWNYFDKEGNRVTGRQYIDGHLYYFKEDGSQAKGEIIEENGIKYYYEPESGILASGRYLQVGDDQWMYFKQDGSLAIGQVRADHGYLKYFDKNGIQVKGKTIVEDGKTYYYDAHSGALVTSSFAEIAPNQWSYFNTDGQALKGKWTINGKEYYFDQNGIQYKGKAVKVGSRYKYYDENDGQPVTNRFAQIEPNVWAYFGADGYAVTGEQVINGQHLYFDQSGRQVKGAYVTVNGQRRYYDANTGEYVPGR
modifications: Streptococcus salivarius SK126
B3: GTF4491T4: T4 C-terminal truncation of GTF4491, SEQ ID NO: 132, strain SG1320 (protein)
chain: INGKQYYVNSDGSVRKNFVFEQDGKSYYFDAETGALATKSQDEFSTEPIKATVDFSSGNQLYKNDDKSLDQLDTFITADAWYRPKSILKDGKTWTASTEADKRPLLMVWWPDKSTQVNYLNYMQNQGLGAGSFSTNSSQESLDQAAKAVQTKIEERIAREGNTNWLRTSIDQFIKTQPGWNSSTENSSYDHLQGGQLLFNNSKGDTGNRTSHANSDYRLLNRTPTNQTGTRKYFKDNSIGGLEFLLANDIDNSNPAVQAEQLNWLHFMMNIGSIMANDPTANFDGLRVDALDNVDADLLQIASDYFKAAYGVDKSEANAIKHLSYLEAWSANDPYYNKDTKGAQLPIDNALRNALTNLLMRDKNTRMQLGDMTAFINSSLNPRGANDKNGERMANYIFTRAHDTEAQTIIQRIIRDRINPNLFGYNFTRDEIKKAFEIYNEDIDKAHKTYASYNLPSVYALMLTNKDSVTRVYYGDLYREDGHYMAKKTPYFDAIDTLLRARIKYVAGGQDMEVKKVGNDGLLTSVRYGKGANNRTDLGTSETRTQGMGVIMTNNYDFRLGSNETVTMNMGRAHRNQLYRPLLLTTKDGIATYLNDSDVPKNLLKRTDWNGNLTFNANDVFGVENVQVSGYLGVWVPYGAKANQDARTQPSNRANSDGQVYKSSAALDSQVMYEAFSNFQAFADDQPELYMNRVLAKNTDLLKAWGITSVGLPPQYVSSKDGTFLDSIIDNGYAFDDRYDMALSQNNKYGSLEDLLNVLRALHKDGIQAIADWVPDQIYNLPGKEVVNATRVNGYGYHQQGYQIVDQAYVANTRTDGTDYQGKYGGAFLDELKAKYPSIFNRVQISNGKQLPTNEKITKWSAKYFNGTNILGRGINFVLRDDKTNQYFNTSANSQLLPTPLRDTGAITSTQVFQRRGQDVYFLRDNQTVKNEFVQDGNGNWYYFGGDGKMTKGAQNINSKDYYFFDNGVQLRNALRRASNGYTYYYGLDGAMVKNAFVDFDDKHK
modifications: T4 C-terminal truncation of GTF4491
B4: GTF4491T5: T5 C-terminal truncation of GTF4491, SEQ ID NO: 122, strain SG1321 (protein)
chain: INGKQYYVNSDGSVRKNFVFEQDGKSYYFDAETGALATKSQDEFSTEPIKATVDFSSGNQLYKNDDKSLDQLDTFITADAWYRPKSILKDGKTWTASTEADKRPLLMVWWPDKSTQVNYLNYMQNQGLGAGSFSTNSSQESLDQAAKAVQTKIEERIAREGNTNWLRTSIDQFIKTQPGWNSSTENSSYDHLQGGQLLFNNSKGDTGNRTSHANSDYRLLNRTPTNQTGTRKYFKDNSIGGLEFLLANDIDNSNPAVQAEQLNWLHFMMNIGSIMANDPTANFDGLRVDALDNVDADLLQIASDYFKAAYGVDKSEANAIKHLSYLEAWSANDPYYNKDTKGAQLPIDNALRNALTNLLMRDKNTRMQLGDMTAFINSSLNPRGANDKNGERMANYIFTRAHDTEAQTIIQRIIRDRINPNLFGYNFTRDEIKKAFEIYNEDIDKAHKTYASYNLPSVYALMLTNKDSVTRVYYGDLYREDGHYMAKKTPYFDAIDTLLRARIKYVAGGQDMEVKKVGNDGLLTSVRYGKGANNRTDLGTSETRTQGMGVIMTNNYDFRLGSNETVTMNMGRAHRNQLYRPLLLTTKDGIATYLNDSDVPKNLLKRTDWNGNLTFNANDVFGVENVQVSGYLGVWVPYGAKANQDARTQPSNRANSDGQVYKSSAALDSQVMYEAFSNFQAFADDQPELYMNRVLAKNTDLLKAWGITSVGLPPQYVSSKDGTFLDSIIDNGYAFDDRYDMALSQNNKYGSLEDLLNVLRALHKDGIQAIADWVPDQIYNLPGKEVVNATRVNGYGYHQQGYQIVDQAYVANTRTDGTDYQGKYGGAFLDELKAKYPSIFNRVQISNGKQLPTNEKITKWSAKYFNGTNILGRGINFVLRDDKTNQYFNTSANSQLLPTPLRDTGAITSTQVFQRRGQDVYFLRDNQTVKNEFVQDGNGNWYYFGGDGKMTKGAQNINSKDYYFFDNGVQLRNALRRASNGYTYYYGLDGAMVKNAFVDFDDKHKQ
modifications: T5 C-terminal truncation of GTF4491

Test: GTF activity of strains (PAHBAH assay)
Assay type: biochemical
Settings: enzyme expressed in B. subtilis host
Protocol: GTF activity of the strains was analyzed by PAHBAH assay in three separate experiments. Due to minor variations between the expeirments, Table 2 lists the activity of the truncated enzymes in the B. subtilis host along with the experiment in which the activity was measured. Most of the T1, T2, and T6 truncations decreased the activity of the enzymes, whereas the T4 and T5 C-terminal truncations retained similar activity relative to the respective N terminal-only truncations (NT). […] To identify specific amino acid residues within the catalytic domain that may be involved in producing the soluble α-glucan fiber, we analyzed the crystal structures (PDB Identifiers: 3AIB, 3AIC, and 3HZ3) of the catalytic domains of three glucosyltransferases to identify residues within 8 Angstroms of the bound ligand. 57 residues met that criterion. A motif was generated based on the corresponding 57 amino acids in GTF0459 and each of the identified homologs. The motif was then used to generate a consensus sequence to capture the variability in the catalytic domains of GTF0459 and the identified homologs. The consensus sequence is provided as SEQ ID NO: 153.

| Molecule | GTF activity of strains: Acitivity (Experiment Number 1) [U/mL] | GTF activity of strains: Acitivity (Experiment Number 2) [U/mL] |
| --- | --- | --- |
| B1 | 42.3 | 53.1 |
| B2 | 34.5 | 48.6 |
| B3 | – | 45.3 |
| B4 | – | 50.6 |
